Test results reported in patent US20240384250A1, “FIBROBLAST GROWTH FACTOR 23 MODULATING COMPOUNDS” (THE UAB RESEARCH FOUNDATION, priority 2021, published 2024).
Read-outs that look alike come from different tables or passages of the source.

Columns and labels:
FGF23 = target: T1, FGF23 (Homo sapiens, UniProt Q9GZV9); assay: Co-immunoprecipitation of FGF with FLAG-tagged sKL on anti-FLAG beads; format: binding; conditions: absence of FGFR
T1 construct: purchased R&D Systems 2604FG025/CF (human) or 2629FG025/CF (mouse)
T1 sequence (Q9GZV9 25-251): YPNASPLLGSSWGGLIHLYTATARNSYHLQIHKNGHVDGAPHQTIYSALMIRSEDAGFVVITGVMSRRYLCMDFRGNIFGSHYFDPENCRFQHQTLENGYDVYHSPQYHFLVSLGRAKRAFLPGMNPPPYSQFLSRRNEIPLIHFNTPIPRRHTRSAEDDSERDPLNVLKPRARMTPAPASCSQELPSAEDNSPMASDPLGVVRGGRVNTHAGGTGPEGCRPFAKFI
Protocol: (§1) To study the interaction between FLAG-tagged sKL and different FGF isoforms, co-immunoprecipitation studies were conducted. FLAG beads (A2220, Sigma-Aldrich) were used at 50 ul of 50% stock slurry per sample. Beads were washed 5× with activity buffer (50 mM Tris [pH 7.4], 200 mM NaCl, 0.01% Tween 20, Sigma-Aldrich). Bead spin-down assays were all performed for 2 minutes at 5000 g. Fifty microliters of a 50% slurry of beads per sample was resuspended in 1 ml of activity buffer in a 1.5-ml snap cap tube. One microgram of FLAG-tagged sKL or Carboxy-terminal bacterial alkaline phosphatase (BAPC; P7457, Sigma-Aldrich) was incubated with the beads for 1 hour on a bead rotator. Beads were then pelleted at 5000 g for 2 minutes and washed 5× with activity buffer. Beads were resuspended in 1 ml of activity buffer and samples with 500 ng of FGF. Beads were incubated for 1 hour on a tube rotator, and beads were pelleted and washed as before. One hundred microliters of I× Laemmli sample buffer (1610737, Bio-Rad) with 1.42 M 2-mercaptoethanol was added, and samples were boiled for 5 minutes and analyzed using sodium dodecylsulfate-polyacrylamide gel electrophoresis (SDS-PAGE) and Western blotting, as described below herein.
(§2) The sample (20 μl) was loaded onto Mini-PROTEAN TGX Precast Gel 4-20% for experiments with <9 samples (4568094, Bio-Rad) or Criterion TGX Precast Gel 4-20% (5678094, Bio-Rad) for experiments with >9 samples. Gels were run in 1× Tris/Glycine/SDS buffer (1610732, Bio-Rad) at 150 V and stopped when the sample dye reached the end of the gel. Gels were removed and electrotransferred via a semi-dry cassette (1703940, Bio-Rad) in I× Tris/Glycine buffer (1610734, Bio-Rad) with 20% methanol. Gels were transferred onto polyvinylidene diflouride membranes (IPVH00010, Millipore) at 20 V for 1 hour. Membranes were then blocked in 5% dried milk with 0.5% Tween 20 diluted in Tris-buffered saline (TBST; pH 7.5) for 1 hour and probed with antibodies against specific antigens at 1:1000 in TBST with 5% dried milk. Blots were washed 3× for 5 minutes in TBST and probed with HRP-coupled secondary antibodies against specific species at 1:10,000 in TBST with 5% dried milk. Membranes were imaged on the SRX-101A X-ray film developer (Konica Minolta).

FGF19 = target: T2, FGF19 (Homo sapiens, UniProt O95750); assay: as above; format: binding
T2 construct: purchased R&D Systems 969FG025/CF
T2 sequence (O95750 25-216): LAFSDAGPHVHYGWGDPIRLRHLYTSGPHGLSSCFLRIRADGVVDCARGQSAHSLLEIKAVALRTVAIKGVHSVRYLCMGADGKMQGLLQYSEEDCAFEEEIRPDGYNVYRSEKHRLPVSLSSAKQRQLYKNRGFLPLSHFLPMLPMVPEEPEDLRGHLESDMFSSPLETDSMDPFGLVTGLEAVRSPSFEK
Protocol: as §1, §2

B1: sKL: recombinant soluble α-klotho ectodomain, mouse aa 35-982 and human aa 34-981, FLAG- or Strep/His-tagged, purified from HEK293 cells (protein)
chain: EPGDGAQTWARFSRPPAPEAAGLFQGTFPDGFLWAVGSAAYQTEGGWQQHGKGASIWDTFTHHPLAPPGDSRNASLPLGAPSPLQPATGDVASDSYNNVFRDTEALRELGVTHYRFSISWARVLPNGSAGVPNREGLRYYRRLLERLRELGVQPVVTLYHWDLPQRLQDAYGGWANRALADHFRDYAELCFRHFGGQVKYWITIDNPYVVAWHGYATGRLAPGIRGSPRLGYLVAHNLLLAHAKVWHLYNTSFRPTQGGQVSIALSSHWINPRRMTDHSIKECQKSLDFVLGWFAKPVFIDGDYPESMKNNLSSILPDFTESEKKFIKGTADFFALCFGPTLSFQLLDPHMKFRQLESPNLRQLLSWIDLEFNHPQIFIVENGWFVSGTTKRDDAKYMYYLKKFIMETLKAIKLDGVDVIGYTAWSLMDGFEWHRGYSIRRGLFYVDFLSQDKMLLPKSSALFYQKLIEKNGFPPLPENQPLEGTFPCDFAWGVVDNYIQVDTTLSQFTDLNVYLWDVHHSKRLIKVDGVVTKKRKSYCVDFAAIQPQIALLQEMHVTHFRFSLDWALILPLGNQSQVNHTILQYYRCMASELVRVNITPVVALWQPMAPNQGLPRLLARQGAWENPYTALAFAEYARLCFQELGHHVKLWITMNEPYTRNMTYSAGHNLLKAHALAWHVYNEKFRHAQNGKISIALQADWIEPACPFSQKDKEVAERVLEFDIGWLAEPIFGSGDYPWVMRDWLNQRNNFLLPYFTEDEKKLIQGTFDFLALSHYTTILVDSEKEDPIKYNDYLEVQEMTDITWLNSPSQVAVVPWGLRKVLNWLKFKYGDLPMYIISNGIDDGLHAEDDQLRVYYMQNYINEALKAHILDGINLCGYFAYSFNDRTAPRFGLYRYAADQFEPKASMKHYRKIIDSNGFPGPETLERFCPEEFTVCTECSFFHTRKS
modifications: left off: small tags and cut ends
notes: recombinant soluble α-klotho ectodomain, mouse aa 35-982 and human aa 34-981, FLAG- or Strep/His-tagged, purified from HEK293 cells
- FGF23 co-precipitation with immobilized FLAG-sKL (FGF23; listed as FLAG-sKL): bound FGF23
- FGF23 co-precipitation with immobilized FLAG-sKL (FGF23; listed as FLAG-tagged sKL): FGF23 could be co-precipitated
- FGF19 co-precipitation with immobilized FLAG-sKL (FGF19): did not bind
- FGF19 co-precipitation with immobilized FLAG-sKL (FGF19; listed as FLAG-sKL): does not binds FGF19
